In patent publication US20130017541:

Tests used:
[1] = tested on: anti-N6-methyladenine monoclonal antibody (best hybridoma) (Mus musculus); assay: ELONA; settings: N6-methyladenine at position 6 (printed as marked A) [6 (N6-methyladenine)]; nearly 40 fold discrimination
[2] = tested on: anti-N6-methyladenine mouse polyclonal antisera (Mus musculus); assay: ELONA; settings: N6-methyladenine at position 6 (printed as marked A) [6 (N6-methyladenine)]; oligo ELISA, antisera 1:10,000
[3] = tested on: DpnI biotinylated (bDpnI); assay: pulldown

Which binding signal (fold preference over unmethylated oligo) [1] does the source give for GCAGGATCAACAGTCACACT [N6mA oligo] here?
Its binding signal (fold preference over unmethylated oligo) is 40.

And the binding signal (fold preference over unmethylated oligo) [2]?
Its binding signal (fold preference over unmethylated oligo) is greater than 10.

With human genomic DNA as the substance, how does the binding signal ([3]; 1 ug human DNA, one wash, reduced to 1% with three washes) read?
Its binding signal is 10 % recovered.

E. coli genomic DNA was tested. Which binding signal ([3]; N6-methyladenine at GATC (dam), 10 ng E. coli DNA in 1 ug human DNA, at least 30% at pg input) did it give?
The binding signal was greater than 80 % recovered.
